Test results reported in patent US20150210768A1, “Methods and Compounds for Preventing, Treating and Diagnosing an Inflammatory Condition” (Westfaelische Wilhelms-Universitaet Muenster, priority 2012, published 2015).

Tests used:
TLR4/MD2 [1] = target: T1, TLR4/MD2 (Homo sapiens, UniProt O00206); experiment: Immunoprecipitation of peptides on bead-coupled TLR4/MD2, eluates analysed by MALDI-TOF mass spectrometry; assay type: binding; design: purchased R&D SYSTEMS; conditions: bead-coupled his-tagged rhTLR4/MD2, 1 mM Calcium, 3 h at 4° C.; MALDI-TOF detection; FIG. 3B, 4, 5
Procedure: Anti-His antibody (5 μL, 0.5 mg/mL, Invivogen) and his-tagged rhTLR4/MD2 (5 μL, 1 mg/mL, carrier free, R&D SYSTEMS) were mixed and coupled to Protein A/G Agarose (50 μl, Pierce, Thermo Scientific). Trypsin digested peptides of S100A9 were added for 3 h at 4° C. in the presence of 1 mM Calcium. After washing of the beads in HBS/1 mM Ca-buffer for three times bound peptidic fragments were eluted by addition of 10 mM TRIS/2 mM EDTA-buffer and analysed by ESI-QIT- and MALDI-TOF-mass spectrometry. Identical experiments were performed to analyze the binding of the chemical synthesized peptides of S100A9 (aa63-79), S100A8 (aa55-71) and the corresponding control peptides aa63-79 AS and aa55-71 A3.

human monocytes = experiment: Stimulation of human monocytes, TNFα release quantified by ELISA; assay type: cell-based; conditions: for activation of monocytes (TNFα released into the culture medium): human monocytes stimulated for four hours, TNFα by ELISA, FIG. 1; for effect of mutation on function of the S100A9 homodimer: purified mutant S100A9 proteins, alanine exchange, binding to and activation of TLR4
From the text: Using standard techniques known in the art, the inventors expressed the individual human proteins S100A8 and S100A9 in recombinant form, and purified them. After generating homodimers and heterodimers, they analysed the properties of the complexes. FIG. 1 illustrates the stimulation of human monocytes for four hours with the indicated concentrations of (A) recombinant human S100A8, recombinant human S100A9 or human S100A8/S100A9, and (B) recombinant human S100A8/S100A9, recombinant human S100A8/S100A9 (N69A) or S100A8/S100A9 (E78A). TNFα released into the culture medium was quantified by means of ELISA.
Monocytes were isolated from human buffy coats by Ficoll-Paque and subsequent Percoll density centrifugation (Pharmacia, Freiburg, Germany) Cells were cultured in Teflon bags (Biofolie 25; Heraeus Instruments, Hanau, Germany) using McCoy's 5a medium supplemented with 15% fetal calf serum for 1 day before stimulation. Monocytes were incubated for 4 hours with different dosis of hS100A8, hS100A9, hS100A8/S100A9 or the modified proteins as indicated in the figures and TNF-α concentrations in supernatants were determined by ELISA (OptEIA, BD Biosciences, Germany).
Release of cytokine TNF-α was measured in the culture supernatants by ELISA (OptEIA, BD Biosciences). […]

his-tagged rhTLR4/MD2 [2] = target: T2, his-tagged rhTLR4/MD2 (human, UniProt O00206 24-631; Q9Y6Y9 19-160); experiment: modified S100A9 ELISA, TLR4/MD2 coated on the plate, 2 ug/ml S100A9 protein, absorbance at 450 nm (FIG. 6C)
T2 construct: Bought recombinant human complex (carrier free, R&D SYSTEMS), his-tagged; In the pull-down it was captured by anti-His antibody on Protein A/G agarose; in the ELISA it was coated on the plate; also called TLR4/MD2 complex; TRLR4/MD2
Procedure: (§1) Binding of S100A9 proteins to TLR4/MD2 was analysed by a modified S100A9-ELISA. Briefly, TLR4/MD2 was coupled to the wells of a 96-well plate and served as capturing molecule. After blocking of the unspecific binding sites by PBS/5% skim milk powder plates were washed three times. S100A9-wt or mutant S100A9 proteins were added at a concentration of 2 μg/ml each in the presence and absence of 100 μM Calcium and incubated for two hours at room temperature. Unbound S100A9 was removed by washing the plates for three times followed by the addition of a primary anti-S100A9-antibody (1 μg/ml, polyclonal, rabbit). After a washing step the secondary anti-rabbit-IgG-antibody coupled to HRP (1 μg/ml from Cell Signalling) was added. TMB was used as substrate for HRP to quantify binding by absorbance readings at 450 nm in an ELISA reader (Anthos Mirkosysteme).

his-tagged rhTLR4/MD2 [3] = target: T2, his-tagged rhTLR4/MD2; experiment: modified S100A9 ELISA, TLR4/MD2 coated on the plate, 2 ug/ml S100A9 protein, absorbance at 450 nm
Procedure: as §1

TLR4/MD2 [4] = target: T1, TLR4/MD2; experiment: Binding of S100A9-wt and mutant proteins to TLR4/MD2 (modified S100A9-ELISA); conditions: 2 μg/ml protein, plate-coupled TLR4/MD2, absorbance 450 nm; FIG. 6B, 6C
Procedure: as §1

T2 sequence (O00206 24-631 limits assumed, chain 1 of 2): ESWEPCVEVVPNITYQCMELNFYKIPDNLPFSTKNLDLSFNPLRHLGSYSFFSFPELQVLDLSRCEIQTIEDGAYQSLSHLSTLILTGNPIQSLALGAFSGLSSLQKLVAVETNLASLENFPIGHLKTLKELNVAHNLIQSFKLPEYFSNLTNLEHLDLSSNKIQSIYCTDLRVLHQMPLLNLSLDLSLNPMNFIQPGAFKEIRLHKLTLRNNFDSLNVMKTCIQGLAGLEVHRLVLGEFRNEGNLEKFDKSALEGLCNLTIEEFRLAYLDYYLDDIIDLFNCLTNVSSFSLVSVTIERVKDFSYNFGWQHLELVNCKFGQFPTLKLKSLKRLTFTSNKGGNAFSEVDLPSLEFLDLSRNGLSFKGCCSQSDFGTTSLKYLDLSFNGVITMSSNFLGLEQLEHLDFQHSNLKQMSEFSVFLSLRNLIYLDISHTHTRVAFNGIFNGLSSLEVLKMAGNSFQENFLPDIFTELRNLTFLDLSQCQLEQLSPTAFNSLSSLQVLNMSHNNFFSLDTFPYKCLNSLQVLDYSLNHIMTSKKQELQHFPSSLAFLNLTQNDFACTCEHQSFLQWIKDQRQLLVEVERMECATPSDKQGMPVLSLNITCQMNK
T2 sequence (Q9Y6Y9 19-160 limits assumed, chain 2 of 2): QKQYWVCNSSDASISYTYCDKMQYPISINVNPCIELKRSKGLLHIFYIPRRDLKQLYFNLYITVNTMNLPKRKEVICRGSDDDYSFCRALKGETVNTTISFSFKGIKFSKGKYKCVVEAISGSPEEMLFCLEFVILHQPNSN
T1 sequence (O00206 24-631 limits assumed): as the sequence (O00206 24-631 limits assumed, chain 1 of 2) above
T1 sequence (Q9Y6Y9 17-160 partner limits assumed): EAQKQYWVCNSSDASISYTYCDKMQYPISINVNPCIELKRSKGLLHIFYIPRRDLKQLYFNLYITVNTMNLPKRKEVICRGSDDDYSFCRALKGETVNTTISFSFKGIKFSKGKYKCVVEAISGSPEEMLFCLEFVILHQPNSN

| binding result (his-tagged rhTLR4/MD2 [3]) | binding to the receptor compared to non-mutated protein (S100A9 wt) (TLR4/MD2 [4]) | Molecule | effect of mutation on function of the S100A9 homodimer (human monocytes) | further results |
| --- | --- | --- | --- | --- |
| binds | weaker binding | S100A9Q73A (ligand, Purified recombinant mutant of human S100A9, homodimer; also called S100A9 Q73A mutant) MTCKMSQLERNIETIINTFHQYSVKLGHPDTLNQGEFKELVRKDLQNFLKKENKNEKVIEHIMEDLDTNADKALSFEEFIMLMARLTWASHEKMHEGDEGPGHHHKPGLGEGTP | loss of function | – |
| binds | weaker binding | S100A9E77A (ligand, Purified recombinant mutant of human S100A9, homodimer; also called S100A9 E77A mutant) MTCKMSQLERNIETIINTFHQYSVKLGHPDTLNQGEFKELVRKDLQNFLKKENKNEKVIEHIMEDLDTNADKQLSFAEFIMLMARLTWASHEKMHEGDEGPGHHHKPGLGEGTP | loss of function | – |
| binds | weaker binding | S100A9E64A (ligand, Purified recombinant mutant of human S100A9, homodimer; also called S100A9 E64A mutant) MTCKMSQLERNIETIINTFHQYSVKLGHPDTLNQGEFKELVRKDLQNFLKKENKNEKVIEHIMADLDTNADKQLSFEEFIMLMARLTWASHEKMHEGDEGPGHHHKPGLGEGTP | loss of function | – |
| binds | weaker binding | S100A9D65A (ligand, Purified recombinant mutant of human S100A9, homodimer; also called S100A9 D65A mutant) MTCKMSQLERNIETIINTFHQYSVKLGHPDTLNQGEFKELVRKDLQNFLKKENKNEKVIEHIMEALDTNADKQLSFEEFIMLMARLTWASHEKMHEGDEGPGHHHKPGLGEGTP | loss of function | – |

The remaining lines, values behind:

| Molecule | binding result (his-tagged rhTLR4/MD2 [3]) | binding to the receptor compared to non-mutated protein (S100A9 wt) (TLR4/MD2 [4]) | effect of mutation on function of the S100A9 homodimer (human monocytes) | further results |
| --- | --- | --- | --- | --- |
| 63-79 A5: control peptide 63-79 of S100A9 with E64A, D65A, K72A, Q73A and E77A exchanged to alanine (MAALDTNADAALSFAEF) [reference compound] | – | – | – | binding to TLR4/MD2 (TLR4/MD2 [1]): no binding could be detected |
| 63-79: synthetic peptide, positions 63-79 of S100A9, complete C-terminal EF hand, MEDLDTNADKQLSFEEF | – | – | – | binding to TLR4/MD2 (TLR4/MD2 [1]): able to bind to TLR4/MD2 |
| No. 15: tryptic peptide of human S100A9, amino acid positions 73-85 (QLSFEEFIMLMAR, SEQ ID NO: 3) (QLSFEEFIMLMARTTT) | – | – | – | binding to TLR4/MD2 (TLR4/MD2 [1]): specific interaction with TLR4/MD2 |
| 55-71: synthetic peptide, positions 55-71 of human S100A8, complete C-terminal EF hand, FKELDINTDGAVNFQEF | – | – | – | binding to TLR4/MD2 (TLR4/MD2 [1]): able to bind to TLR4/MD2 |
| S100A8: recombinant human protein S100A8 (Uniprot P05109), used as homodimer (protein) MLTELEKALNSIIDVYHKYSLIKGNFHAVYRDDLKKLLETECPQYIRKKGADVWFKELDINTDGAVNFQEFLILVIKMGVAAHKKSHEESHKE | – | – | – | activation of monocytes (TNFα released into the culture medium) (human monocytes): induce a particular strong, pro-inflammatory response in monocytes; activation of monocytes (TNFα released into the culture medium) (human monocytes; listed as homodimers of S100A8): induce this response |
| S100A9 double mutant with alanine at both D65 and Q73 (ligand, Purified recombinant double mutant of human S100A9, homodimer) MTCKMSQLERNIETIINTFHQYSVKLGHPDTLNQGEFKELVRKDLQNFLKKENKNEKVIEHIMEALDTNADKALSFEEFIMLMARLTWASHEKMHEGDEGPGHHHKPGLGEGTP | – | – | – | binding result (his-tagged rhTLR4/MD2 [2]): binds |
| heterotetrameric complex between S100A8 and S100A9: complex of recombinant human S100A8 and S100A9, heterotetramer in presence of calcium (protein) chain 1: MLTELEKALNSIIDVYHKYSLIKGNFHAVYRDDLKKLLETECPQYIRKKGADVWFKELDINTDGAVNFQEFLILVIKMGVAAHKKSHEESHKE chain 2: MTCKMSQLERNIETIINTFHQYSVKLGHPDTLNQGEFKELVRKDLQNFLKKENKNEKVIEHIMEDLDTNADKQLSFEEFIMLMARLTWASHEKMHEGDEGPGHHHKPGLGEGTP | – | – | – | activation of monocytes (TNFα released into the culture medium) (human monocytes): does not induce an inflammatory response in monocytes; activation of monocytes (TNFα released into the culture medium) (human monocytes; listed as heterotetrameric complex of s100A8 and S100A9): did not show activating properties that would be comparable to the individual components |
| S100A9: recombinant human protein S100A9 (Uniprot P06702), used as homodimer (protein) MTCKMSQLERNIETIINTFHQYSVKLGHPDTLNQGEFKELVRKDLQNFLKKENKNEKVIEHIMEDLDTNADKQLSFEEFIMLMARLTWASHEKMHEGDEGPGHHHKPGLGEGTP | – | – | – | activation of monocytes (TNFα released into the culture medium) (human monocytes): induce a particular strong, pro-inflammatory response in monocytes; activation of monocytes (TNFα released into the culture medium) (human monocytes; listed as homodimers of S100A9): induce this response |
| S100A9 double mutant with alanine at both Q73 and E77 (ligand, Purified recombinant double mutant of human S100A9, homodimer) MTCKMSQLERNIETIINTFHQYSVKLGHPDTLNQGEFKELVRKDLQNFLKKENKNEKVIEHIMEDLDTNADKALSFAEFIMLMARLTWASHEKMHEGDEGPGHHHKPGLGEGTP | – | – | – | binding result (his-tagged rhTLR4/MD2 [2]): binds |
| S100A9 double mutant with alanine at both E64 and Q73 (ligand, Purified recombinant double mutant of human S100A9, homodimer) MTCKMSQLERNIETIINTFHQYSVKLGHPDTLNQGEFKELVRKDLQNFLKKENKNEKVIEHIMADLDTNADKALSFEEFIMLMARLTWASHEKMHEGDEGPGHHHKPGLGEGTP | – | – | – | binding result (his-tagged rhTLR4/MD2 [2]): binds |
| S100A9K72A (ligand, Purified recombinant mutant of human S100A9, homodimer; also called S100A9 K72A mutant) MTCKMSQLERNIETIINTFHQYSVKLGHPDTLNQGEFKELVRKDLQNFLKKENKNEKVIEHIMEDLDTNADAQLSFEEFIMLMARLTWASHEKMHEGDEGPGHHHKPGLGEGTP | binds | not significantly different from the wild type protein | hardly any effect | – |
| S100A9 double mutant with alanine at both E64 and D65 (ligand, Purified recombinant double mutant of human S100A9, homodimer) MTCKMSQLERNIETIINTFHQYSVKLGHPDTLNQGEFKELVRKDLQNFLKKENKNEKVIEHIMAALDTNADKQLSFEEFIMLMARLTWASHEKMHEGDEGPGHHHKPGLGEGTP | – | – | – | binding result (his-tagged rhTLR4/MD2 [2]): binds |
| S100A9R85A (ligand, Purified recombinant mutant of human S100A9, homodimer; also called S100A9 R85A mutant) MTCKMSQLERNIETIINTFHQYSVKLGHPDTLNQGEFKELVRKDLQNFLKKENKNEKVIEHIMEDLDTNADKQLSFEEFIMLMAALTWASHEKMHEGDEGPGHHHKPGLGEGTP | binds | not significantly different from the wild type protein | hardly any effect | – |
